Experimental data reported in article PMC3925092.

What was measured:
[1] = molecular target: Hcp1 (hemolysin co-regulated protein 1) of the Sci-1 T6SS of enteroaggregative E. coli, wild type (enteroaggregative E. coli 17-2); test: SEC-MALS; SEC/MALS/UV/RI on KW803 and KW804 columns (Shodex), Tris-HCl 20 mM pH 7.5, NaCl 100 mM, 0.5 ml/min; monomers in the hexamer
[2] = molecular target: Hcp1 (hemolysin co-regulated protein 1) of the Sci-1 T6SS of enteroaggregative E. coli, wild type (enteroaggregative E. coli 17-2); test: SPR; BIAcore T200, 25°C; Hcp1 immobilised by amine coupling (CM5 chip in the results, HC200m Xantech chip in the methods), Hcp1 3.75-120 µM as analyte in HBS-EP; steady state, 1:1 equilibrium model; hexamer with hexamer; Hcp1WW tested in the same conditions
[3] = molecular target: Hcp1 N93W/S158W double mutant (Hcp1WW) (enteroaggregative E. coli 17-2); test: SEC-MALS; MALLS-SEC-UV of Hcp1WW, data not shown; monomers in the hexamer
[4] = molecular target: Hcp2 of enteroaggregative E. coli (second T6SS gene cluster), wild type (enteroaggregative E. coli 17-2); test: SEC-MALS; SEC/MALS/UV/RI on KW803 and KW804 columns (Shodex), Tris-HCl 20 mM pH 7.5, NaCl 100 mM, 0.5 ml/min; monomers in the hexamer

Hcp1 (hemolysin co-regulated protein 1) of the Sci-1 T6SS of enteroaggregative E. coli, wild type (natural protein)
stoichiometry N [1]: 6
Kd [2]: 7.2 µM

Hcp1 N93W/S158W double mutant (Hcp1WW) (natural protein)
stoichiometry N [3]: 6

Hcp2 of enteroaggregative E. coli (second T6SS gene cluster), wild type (natural protein)
stoichiometry N [4]: 6
